Patent publication US20240132615A1 (ICHNOS SCIENCES, published 2024)

How the values were obtained:
[1] = molecular target: T1, human BCMA on multiple myeloma cells (human, UniProt Q02223 1-184); assay: flow cytometry on MOLP-8 cells; one-site binding fit
T1 construct: whole, on cells; Here the protein is the cell lines' own; also called B-cell maturation antigen; TNFRSF17
T1 sequence (looked up): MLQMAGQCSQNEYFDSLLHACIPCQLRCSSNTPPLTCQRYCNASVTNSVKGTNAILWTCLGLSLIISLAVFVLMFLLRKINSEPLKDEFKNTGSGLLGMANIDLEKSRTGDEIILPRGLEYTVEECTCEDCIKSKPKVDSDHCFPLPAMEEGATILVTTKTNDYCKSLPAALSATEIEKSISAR

[2] = molecular target: T1, human BCMA on multiple myeloma cells; assay: flow cytometry on KMS-12-BM cells; one-site binding fit
Experimental: (§1) The plates were centrifuged at 350 g for 3 min at 4° C. and cells washed twice with DPBS.
(§2) Cells were resuspended in 25 μl of LIVE/DEAD Fixable Near-IR Dead Cell Stain (ThermoFisher Scientific, L34976) diluted at 1/1′000 in DPBS and incubated 20 min at 4° C. […] Cells were then washed twice and resuspended in 25 μl of FACS buffer with azide. Samples were acquired on an iQue Screener Plus instrument (IntelliCyt). Cells were gated based on size on FSC vs SSC and debris, doublets and dead cells were excluded. Population was analyzed for APC-geometric mean (geomean) fluorescence intensity (MFI) using iQue Forecyt® software. Only samples showing at least 2′000 cells in final gate were considered in the further steps of the analysis. Relative geometric mean fluorescence intensity (RFI) was calculated by subtracting the MFI of the negative control from the MFI of the sample at each dilution. RFI values were finally plotted using Prism software (GraphPad). Equilibrium dissociation constant values (KD) and maximum binding were determined by using one-site binding curve fitting on non-transformed data (Prism).

[3] = molecular target: T1, human BCMA on multiple myeloma cells; assay: flow cytometry on KMS-12-BM cells (BCMA+CD38+), anti-human IgG secondary, RFI
Experimental: as §1, §2

[4] = molecular target: T1, human BCMA on multiple myeloma cells; assay: flow cytometry on NCI-H929 cells (BCMA++CD38++), anti-human IgG secondary, RFI
Experimental: as §1, §2

[5] = molecular target: T2, human CD3 on primary human T cells (human, UniProt P07766 23-207; P04234 22-171; P09693 23-182; P20963 22-164); assay: flow cytometry on isolated human T cells (CD38-negative gate), anti-human IgG secondary, relative fluorescence (RFI)
T2 construct: whole, on cells; Endogenous CD3 complex on isolated human T cells, gated CD38-negative; also called CD3-expressing T cells; human CD38 negative T cells

[6] = molecular target: T1, human BCMA on multiple myeloma cells; assay: flow cytometry on NCI-H929 WT cells; one-site binding fit
Experimental: as §1, §2

[7] = molecular target: T2, human CD3 on primary human T cells; assay: flow cytometry on isolated human primary T cells gated CD38-negative; one-site binding fit
Experimental: Cells were thawed in pre-warmed complete RPMI medium (RPMI supplemented with 10% heat inactivated fetal calf serum, 1% L-Glutamine, 1% Non-essential Amino Acids, 1% Sodium Pyruvate, and 1% Penicillin/Streptomycin) and rested overnight at 1.5×10⁶ cells/ml. Cells were plated at 1×10⁵ cells/well in 96-well round-bottom plates. The plates were centrifuged at 350 g for 3 min at 4° C. and cells washed twice with DPBS. Cells were resuspended in 25 μl of LIVE/DEAD Fixable Near-IR Dead Cell Stain (ThermoFisher Scientific, L34976) diluted at 1/1′000 in DPBS and incubated 20 min at 4° C. […] Cells were then washed twice and resuspended in 25 μl of FACS buffer with azide. Samples were acquired on an iQue Screener Plus instrument (IntelliCyt). Cells were gated based on size on FSC vs SSC and debris, doublets and dead cells were excluded. Finally, viable cells were gated on CD38-T cells. The population was analyzed for PE-geometric mean (geomean) fluorescence intensity (MFI) using iQue Forecyt© software. Only samples showing at least 2′000 cells in final gate were considered in the further steps of the analysis. Relative geometric mean fluorescence intensity (RFI) was calculated per donor by subtracting the mean of MFI of the negative control from the MFI of the sample at each dilution. RFI values were finally plotted using Prism software (GraphPad). Equilibrium dissociation constant values (KD) and maximum binding were determined by using one-site binding curve fitting on non-transformed data (Prism). […] Two independent experiments were performed.

[8] = molecular target: T1, human BCMA on multiple myeloma cells; assay: flow cytometry on NCI-H929 CD38 KO cells (BCMA++CD38-), anti-human IgG secondary, RFI
Experimental: as §1, §2

[9] = molecular target: T1, human BCMA on multiple myeloma cells; assay: flow cytometry on NCI-H929 CD38 KO cells; one-site binding fit
Experimental: as §1, §2

T2 sequence (P07766 23-207, chain 1 of 4): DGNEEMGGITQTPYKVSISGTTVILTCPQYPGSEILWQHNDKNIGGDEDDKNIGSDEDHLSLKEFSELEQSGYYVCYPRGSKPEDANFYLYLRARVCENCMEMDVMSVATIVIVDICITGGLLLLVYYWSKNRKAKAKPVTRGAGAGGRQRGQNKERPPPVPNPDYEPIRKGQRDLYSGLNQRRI
T2 sequence (P04234 22-171, chain 2 of 4): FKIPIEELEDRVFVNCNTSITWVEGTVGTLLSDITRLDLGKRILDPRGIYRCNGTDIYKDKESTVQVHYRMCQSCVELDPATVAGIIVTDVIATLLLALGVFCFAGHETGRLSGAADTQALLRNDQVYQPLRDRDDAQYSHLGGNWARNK
T2 sequence (P09693 23-182, chain 3 of 4): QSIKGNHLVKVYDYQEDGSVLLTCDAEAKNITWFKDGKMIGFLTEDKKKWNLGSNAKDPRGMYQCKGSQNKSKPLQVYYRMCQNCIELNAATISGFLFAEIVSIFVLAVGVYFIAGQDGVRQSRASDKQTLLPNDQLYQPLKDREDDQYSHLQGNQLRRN
T2 sequence (P20963 22-164, chain 4 of 4): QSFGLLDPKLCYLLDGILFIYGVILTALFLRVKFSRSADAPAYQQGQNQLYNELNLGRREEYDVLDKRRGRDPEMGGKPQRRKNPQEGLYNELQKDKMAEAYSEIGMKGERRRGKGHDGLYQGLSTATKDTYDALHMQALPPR

Kd [1]: 95.8 nM
Kd [2]: 21.8 nM
EC50 (read off the curve) [3]: ~20 nM
EC50 (read off the curve) [4]: ~30 nM
EC50 (read off the curve) [5]: ~20 nM
Kd [6]: 30.4 nM
Kd [7]: 18 nM
EC50 (read off the curve) [8]: ~40 nM
Kd [9]: 46.3 nM
B1: teclistamab (bispecific antibody)
chain 1: not shown
chain 2: SYVLTQPPSVSVAPGQTARITCGGNNIGSKSVHWYQQPPGQAPVVVVYDDSDRPSGIPERFSGSNSGNTATLTISRVEAGDEAVYYCQVWDSSSDHVVFGGGTKLTVLGQPKAAPSVTLFPPSSEELQANKATLVCLISDFYPGAVTVAWKGDSSPVKAGVETTTPSKQSNNKYAASSYLSLTPEQWKSHRSYSCQVTHEGSTVEKTVAPTECS
chain 3: EVQLVESGGGLVQPGGSLRLSCAASGFTFNTYAMNWVRQAPGKGLEWVARIRSKYNNYATYYAASVKGRFTISRDDSKNSLYLQMNSLKTEDTAVYYCARHGNFGNSYVSWFAYWGQGTLVTVSSASTKGPSVFPLAPCSRSTSESTAALGCLVKDYFPEPVTVSWNSGALTSGVHTFPAVLQSSGLYSLSSVVTVPSSSLGTKTYTCNVDHKPSNTKVDKRVESKYGPPCPPCPAPEAAGGPSVFLFPPKPKDTLMISRTPEVTCVVVDVSQEDPEVQFNWYVDGVEVHNAKTKPREEQFNSTYRVVSVLTVLHQDWLNGKEYKCKVSNKGLPSSIEKTISKAKGQPREPQVYTLPPSQEEMTKNQVSLTCLVKGFYPSDIAVEWESNGQPENNYKTTPPVLDSDGSFLLYSKLTVDKSRWQEGNVFSCSVMHEALHNHYTQKSLSLSLGK
chain 4: QTVVTQEPSLTVSPGGTVTLTCRSSTGAVTTSNYANWVQQKPGQAPRGLIGGTNKRAPGTPARFSGSLLGGKAALTLSGVQPEDEAEYYCALWYSNLWVFGGGTKLTVLGQPKAAPSVTLFPPSSEELQANKATLVCLISDFYPGAVTVAWKADSSPVKAGVETTTPSKQSNNKYAASSYLSLTPEQWKSHRSYSCQVTHEGSTVEKTVAPTECS
